Assay results taken from the supplement of paper PMC9170038.

Tested on: MS2 coat protein
Assay: apparent KD of MS2 coat protein; designed switch direction (-1 OFF switch, 1 ON switch): -1; higher = weaker reporter binding
How it was run: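 Designed RNA switches with common flanks were transcribed on Illumina chips by stalled E. coli RNA polymerase and titrated with SNAP-549-labelled MS2 coat protein, from 0.7 or 1.5 nM doubling to 3 µM, in Tris-HCl pH 7.5 buffer with KCl, MgCl2, BSA, DTT, tRNA and Tween-20. Steps lasted 0.8–1.5 h (lowest) to 10–20 min (highest). Titrations ran without input, with 200 uM small-molecule ligand, or with an oligonucleotide input. Normalised cluster fluorescence was curve-fitted, and apparent KD is the per-design median over clusters.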

[1] = input ligand: microRNA oligo, concentration not stated
[2] = Eterna round: R95, input ligand: microRNA oligo, concentration not stated
[3] = Eterna round: R95, input ligand: FMN 200 uM
[4] = Eterna round: R95, input ligand: none

Sequence	apparent KD of MS2 coat protein (input ligand: FMN 200 uM)	apparent KD of MS2 coat protein [1]	apparent KD of MS2 coat protein (input ligand: none)	apparent KD of MS2 coat protein [2]	apparent KD of MS2 coat protein [3]	apparent KD of MS2 coat protein [4]
UUUUUACAUGAGGAUCACCCAUGUCAGGAUAUGCUUAUAUUUUAUUAUUUUAUUUUUUGCAGAAGGGACUAUUA [My solution] (Eterna round: R96, puzzle: Exclusion 1)	130 nM	80.4 nM	118 nM	–	–	–
UUUUUACAUGAGGAUCACCCAUGUCAGGAUAUGCUUAUAUUUUAUUAUUUUAUUUUUUGCAGAAGGGACUAUUA [My solution] (puzzle: Exclusion 1)	–	–	–	80 nM	–	–
UUUUUAUAUGAAGGAUAUACUUAACAUGAGGAUCACCCAUGUGGUGUUGUGAGUGAGUGAGUUUAGUAGAAGGUCAAGUACUUU [JMF's solution 37] (Eterna round: R96, puzzle: Exclusion NG 2)	614 nM	380 nM	574 nM	–	–	–
UUUUUAUAUGAAGGAUAUACUUAACAUGAGGAUCACCCAUGUGGUGUUGUGAGUGAGUGAGUUUAGUAGAAGGUCAAUUAGUUU [JMF's solution 12] (Eterna round: R96, puzzle: Exclusion NG 2)	363 nM	157 nM	209 nM	–	–	–
UUUUUAUAUGAAGGAUAUACUUAACAUGAGGAUCACCCAUGUGGUGUUGUGAGUGAGUGAGUUUAGUAGAAGGUCAAUUAUAUU [JMF's solution 13] (Eterna round: R96, puzzle: Exclusion NG 2)	574 nM	316 nM	350 nM	–	–	–
UUUUUAUAUGAAGGAUAUACUUAACAUGAGGAUCACCCAUGUGGUGUUGUGAGUGAGUGAGUUUAGUAGAAGGUCAAUUCUUUG [JMF's solution 84] (Eterna round: R96, puzzle: Exclusion NG 2)	397 nM	344 nM	347 nM	–	–	–
UUUUUAUUUUUUUAUUUUGACAUGAGGAUCACCCAUGUCACGAGCAGAUCUUCAUGCAAGCUUUUUGCUCGUCUUAU [Sensor v3 - Turn-off variant 1 - 40] (puzzle: Sensor v3, turn-off variant 1)	–	–	–	141 nM	58.3 nM	98.4 nM
UUUUUCAGGCCAGAUCCUCACAUGAGGAUCACCCAUGUGCUCGUCUGUUUUCGCACUAGCUUUUUUUUGGUAGUGCU [Level Boss var2-15] (puzzle: Sensor v3, turn-off variant 1)	–	–	–	28.4 nM	280 nM	325 nM
UUUUUCAGGCCAGAUCCUCACAUGAGGAUCACCCAUGUGCUCGUCUGUUUUCGCUCUAGCUUUUUUUUGGUAGUGCU [Level Boss var2-16] (puzzle: Sensor v3, turn-off variant 1)	–	–	–	31.8 nM	164 nM	243 nM
UUUUUCGAACAAGCUACGUACAUGAGGAUCACCCAUGUUGGUAGAUUUGAGUAGGUUUGGAUGGAAGCUCGUCUUAU [JR_SV3TOV1_Sub083] (puzzle: Sensor v3, turn-off variant 1)	–	–	–	44.5 nM	19.2 nM	21.4 nM
UUUUUCUCAGGAUAUACAUGAGGAUCACCCAUGUAUAUUAAGAAUAAUACAUGGGAAUGUAGAAGGGAGCUCAU [Omei Ex3 Pseudoloop 10] (Eterna round: R97, puzzle: Exclusion 3)	101 nM	–	129 nM	–	–	–
UUUUUGUCAGGAUAUACGUAGUAGAACAAUAGUACUACUACGUAGAAGGGACAUGAGGAUCACCCAUGUUCCUC [Fiskers Ex 4 Super stable 44 mod 16] (puzzle: Exclusion 4)	–	–	–	16 nM	–	–
UUUUUGUGAGGAUAUCAGUAGUAGAACAAUAGUACUACUACUGAGAAGGUACAUGAGGAUCACCCAUGUUCCUC [Fiskers Ex 4 Super stable 44 mod 13] (puzzle: Exclusion 4)	–	–	–	19.5 nM	–	–
